Results published in patent US20040033229A1.
Values joined by “and” are separate entries in the source; they are usually repeats but may differ in a detail not shown here. Identical values can stand only once.

Key:
[1] = target: prostate specific membrane antigen (PSMA), full-length, on the cell surface (human) (UniProt Q04609); assay: fraction of radiolabel bound to cells, average
[2] = target: prostate specific membrane antigen (PSMA), full-length, on the cell surface (human) (UniProt Q04609); assay: fraction of radiolabel bound to cells, PSMA-3T3
[3] = target: prostate specific membrane antigen (PSMA), full-length, on the cell surface (human) (UniProt Q04609); assay: cell-based or functional assay

Chain of prostate specific membrane antigen (PSMA), full-length, on the cell surface (human) (Q04609 whole entry): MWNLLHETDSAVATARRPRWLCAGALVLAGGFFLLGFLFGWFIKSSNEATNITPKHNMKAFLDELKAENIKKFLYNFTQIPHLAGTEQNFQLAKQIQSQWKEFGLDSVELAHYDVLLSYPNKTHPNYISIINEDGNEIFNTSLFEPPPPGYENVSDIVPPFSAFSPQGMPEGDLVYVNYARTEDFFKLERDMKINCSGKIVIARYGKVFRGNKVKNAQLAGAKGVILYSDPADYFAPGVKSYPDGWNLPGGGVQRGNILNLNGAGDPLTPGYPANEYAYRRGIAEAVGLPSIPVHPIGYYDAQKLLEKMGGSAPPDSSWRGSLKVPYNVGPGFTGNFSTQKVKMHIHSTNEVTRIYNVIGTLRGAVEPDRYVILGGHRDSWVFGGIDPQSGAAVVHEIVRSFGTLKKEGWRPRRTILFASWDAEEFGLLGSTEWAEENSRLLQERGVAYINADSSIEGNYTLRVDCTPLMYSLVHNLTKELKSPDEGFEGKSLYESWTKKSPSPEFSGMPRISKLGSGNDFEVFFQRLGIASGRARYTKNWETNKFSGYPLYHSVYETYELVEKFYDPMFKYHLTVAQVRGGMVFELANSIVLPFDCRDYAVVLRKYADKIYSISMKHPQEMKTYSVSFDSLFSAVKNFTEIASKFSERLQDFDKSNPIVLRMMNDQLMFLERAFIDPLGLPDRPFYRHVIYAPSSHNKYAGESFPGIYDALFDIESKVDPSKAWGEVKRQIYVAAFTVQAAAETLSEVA

| Immunoreactivity (%) [1] | Immunoreactivity (%) [2] | Substance | LD50, immunotoxin cytotoxicity (Mab-Zap saporin) on C4-2 cells [3] | LD50, immunotoxin cytotoxicity (Mab-Zap saporin) on PSMA-3T3 cells [3] |
| --- | --- | --- | --- | --- |
| 56.7% | 58.5% and 54.9% | 111In radiolabeled mJ591 (antibody) |  |  |
|  |  | mAb J591 (antibody) | 88.2 pM | 89 pM |
